The record followed here is patent US8877192B2, “Rage fusion proteins and methods of use” (TransTech Pharma, LLC, priority 2004, dated 2014).

The subject of test [1] is diabetic rat model of restenosis. The test can be described thus: Diabetic rat model of restenosis (balloon injury of left common carotid artery). The format is in vivo, Zucker diabetic rats. To be noted: 4 days after injury; dose-responsive; FIG. 13B. The protocol:
In these experiments, balloon injury of left common carotid artery was performed in Zucker diabetic and nondiabetic rats using standard procedure. […] A maintenance dose was delivered every other day until day 7 after injury (i.e., at day 1, 3, 5 and 7 after injury). The maintenance dose was high=1 mg/animal for one group, or low=0.3 mg/animal for the second group. To measure vascular smooth muscle cell (VSMC) proliferation, animals were sacrificed at 4 days and 21 days after injury. For the measurement of cell proliferation, 4 day animals received intraperitoneal injection of bromodeoxyuridine (BrDdU) 50 mg/kg at 18, 12, and 2 hours before euthanasia. After sacrifice, the entire left and right carotid arteries were harvested. Specimens were stored in Histochoice for at least 24 hours before embedding. […] A fluorescence labeled goat anti-mouse secondary antibody was applied. The number of BrdU-positive nuclei per section were counted by two observers blinded to the treatment regimens.
The remaining rats were sacrificed at 21 days for morphometric analysis. Morphometric analyses were performed by an observer blinded to the study groups, using computerized digital microscopic planimetry software Image-Pro Plus on serial sections, ([…]) carotid arteries stained by Van Gieson staining All data were expressed as mean±SD. […]

The test system of test [2] is transgenic mice expressing the human Swedish mutant amyloid precursor protein (APP). The test is described as follows: Mouse model of AD (APP transgenic mice). It counts as in vivo. The procedure:
Experiments were performed to evaluate whether TTP-4000 could affect amyloid formation and cognitive dysfunction in a mouse model of AD. The experiments utilized transgenic mice expressing the human Swedish mutant amyloid precursor protein (APP) under the control of the PDGF-B chain promoter. Over time, these mice generate high levels of the RAGE ligand, amyloid beta (Aβ).
The APP mice (male) used in this experiment were designed by microinjection of the human APP gene (with the Swedish and London mutations) into mouse eggs under the control of the platelet-derived growth factor B (PDGF-B) chain gene promoter. The mice were generated on a C57BL/6 background and were developed by Molecular Therapeutics Inc. Animals were fed ad libitum and maintained by brother sister mating. The mice generated from this construct develop amyloid deposits starting at 6 months of age. Animals were aged for 6 months and then maintained for 90 days and sacrificed for amyloid quantification.
APP transgenic mice were administered vehicle or TTP4000 every other day [qod (i.p.)] for 90 days starting at 6 months of age. At the end of the experiment, animals were sacrificed and examined for Aβ plaque burden in the brain (i.e., plaque number). A 6-month control APP group was used to determine the baseline of amyloid deposits. In addition, at the end of the study, the animals were subjected to behavioral (Morris water maze) analysis. The investigators were blinded to the study compounds. Samples were given to the mice at 0.25 ml/mouse/every other day.
For histological examination, the animals were anesthetized with an intraperitoneal injection (IP) of sodium pentobarbital (50 mg/kg). The animals were transcardially perfused with 4° C., phosphate-buffered saline (PBS) followed by 4% paraformaldehyde. The brains were removed and placed in 4% paraformaldehyde over night. The brains were processed to paraffin and embedded. Ten serial 30-μm thick sections through the brain were obtained. Sections were subjected to primary antibody overnight at 4° C. (Aβ peptide antibody) in order to detect the amyloid deposits in the brain of the transgenic animals (Guo et al., J. Neurosci., 22:5900-5909 (2002)). Sections were washed in Tris-buffered saline (TBS) and secondary antibody was added and incubated for 1 hour at room temperature. After washing, the sections were incubated as instructed in the Vector ABC Elite kit (Vector Laboratories) and stained with […] (DAB). The reactions were stopped in water and cover-slipped after treatment with xylene. The amyloid area in each section was determined with a computer-assisted image analysis system, consisting of a Power Macintosh computer equipped with a Quick Capture frame grabber card, Hitachi CCD camera mounted on an Olympus microscope and camera stand. NIH Image Analysis Software, v. 1.55 was used. The images were captured and the total area of amyloid was determined over the ten sections. A single operator blinded to treatment status performed all measurements. Summing the amyloid volumes of the sections and dividing by the total number of sections was done to calculate the amyloid volume.
For quantitative analysis, an enzyme-linked immunosorbent assay (ELISA) was used to measure the levels of human total Aβ, Aβtotal and Aβ1-42 in the brains of APP transgenic mice (Biosource International, Camarillo, Calif.). Aβtotal and Aβ1-42 were extracted from mouse brains by guanidine hydrochloride and quantified as described by the manufacturer. […]

Test [3] deals with S100b/RAGE-induced production of TNF-α in THP-1 cells. The test is described as follows: S100b/RAGE-induced production of TNF-α in THP-1 cells. The format is cell-based. The conditions noted are these: FIG. 10. The protocol:
THP-1 myeloid cells may be cultured in RPMI-1640 media supplemented with 10% FBS and induced to secrete TNF-α via stimulation of RAGE with S100b. When such stimulation occurs in the presence of a RAGE fusion protein, induction of TNF-α by S100b binding to RAGE may be inhibited.
Previous work has shown that the myeloid THP-1 cells may secrete TNF-α in response to RAGE ligands. In this assay, THP-1 cells were cultured in RPMI-1640 media supplemented with 10% FBS using a protocol provided by ATCC. […] The amount of TNF-α secreted by the THP-1 cells was measured 24 hours after the addition of the proteins to the cell culture using a commercially available ELISA kit for TNF-α (R&D Systems, Minneapolis, Minn.).

For another test, the system named is Fc receptor. The test can be described thus: Fc receptor activation: TNF-α secretion from THP-1 cells. It counts as cell-based. To be noted: wells precoated with 10 ug/well heat aggregated protein, 24 hours, FIG. 12. From the text:
Fc stimulation results in TNF-α secretion.

B1: TTP-4000: four domain RAGE fusion protein (SEQ ID NO: 32): human RAGE amino acids 1-251 linked to CH2 and CH3 domains of human IgG (protein)
chain: MAAGTAVGAWALVLSLWGAVVGAQNITARIGEPLVLKCKGAPKKPPQRLEWKLNTGRTEAWKVLSPQGGGPWDSVARVLPNGSLFLPAVGIQDEGIFRCQAMNRNGKETKSNYRVRVYQIPGKPEIVDSASELTAGVPNKVGTCVSEGSYPAGTLSWHLDGKPLVPNEKGVSVKEQTRRHPETGLFTLQSELMVTPARGGDPRPTFSCSFSPGLPRHRALRTAPIQPRVWEPVPLEEVQLVVEPEGGAVAPPSVFLFPPKPKDTLMISRTPEVTCVVVDVSHEDPEVKFNWYVDGVEVHNAKTKPREEQYNSTYRVVSVLTVLHQDWLNGKEYKCKVSNKALPAPIEKTISKAKGQPREPQVYTLPPSRDELTKNQVSLTCLVKGFYPSDIAVEWESNGQPENNYKTTPPVLDSDGSFFLYSKLTVDKSRWQQGNVFSCSVMHEALHNHYTQKSLSLSPGK
B1: the “vascular smooth muscle cell proliferation (BrdU-positive nuclei)” value in test [1] is listed as “significantly reduced”. Moreover, in test [2] (data not shown), the “inflammatory cytokines IL-1 and TNF-α” value is listed as “reduce”. Also, the “Aβ plaques in the brain” value in test [2] (treated for 3 months, versus vehicle and human IgG1, FIG. 14A) was “fewer Aβ plaques”. Moreover, in test [2] (treated for 3 months, versus vehicle and human IgG1, FIG. 14B), the “cognitive dysfunction (Morris water maze)” value is reported as “less cognitive dysfunction”. For the same molecule, the “reduction of induction of TNF-α by S100b” value in test [3] (10 μg protein, S100b 0.1 mg/ml FAC, 24 hours) is on record as approximately 70%. Further, the “blocking S100b induction of TNF-α compared with sRAGE” value in test [3] (10 μg) is “at least as effective in blocking S100b induction of TNF-α as is sRAGE”. Moreover, in the test on Fc receptor, the TNF generated result was “less than 2 ng/well”.
